This note sets out measurements from the supplement of paper PMC12042874.

± gives the uncertainty stated by the source.

The nature of the data set: amyloid nucleation score (Sup35N fusion, yeast selection) (log enrichment); library NNK2; higher = more nucleation; inactive = no reads after selection. In a few lines: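 Sup35N was fused to peptides of 20 random codons and expressed in psi-negative yeast, which were induced with 100 μM copper sulfate for 24 hours and then grown on medium lacking adenine and uracil for 7 days at 30°C. Plasmid inserts from input and output were sequenced on Illumina. The nucleation score is the DiMSum log enrichment of output over input reads, centred on the mode score of non-aggregating sequences. Sequences with under 100 input reads were left out, and random libraries had three technical output replicates.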
Regarding FCSSFEEYICLNYVIRSEWM, the amyloid nucleation score is 3.82 ± 0.095.
NSFMPMTWLPFRSQTEKRGS registered an amyloid nucleation score of 3.73 ± 0.075.
The substance SYSFRVVDWVYILTYLRKFE showed an amyloid nucleation score of 1.65 ± 0.33.
For RPVSSFVSASGSRSGLQSLK the value was 0.085 ± 0.8.
For CKSQLHLRVRTRKNVCVVIS the value was 0.13 ± 0.62; for CRRHVMFYTCMLE, 4.27 ± 0.064; for YDNSYNWTATTFFGSRPDQS, 4.55 ± 0.048.
As for LEYFITTSGSSSKVLHGFTM, the amyloid nucleation score was -0.986 ± 1.1.
As to DKFISLFKRGAHKDVQ, the amyloid nucleation score is -0.42 ± 0.76.
For SFCWRYMCRFVMDSFITVPR the value was -0.423 ± 0.34; for VYTQYYNTKSKISYCFLRLI, “inactive”.
For VGVVLFFFVLCYWVKT the value was -0.79 ± 0.41; for LNHIYYLAIQTTACILTMGE, -1.07 ± 0.63; for FFSRFERPLQCNIFKL, 4.13 ± 0.12.
Then FYRLLWSRNCTEVR, with -1.43 ± 0.75; and PTLHMGMPN, with -0.013 ± 0.79.
On to VDCWMSISCQDYDSKFKVKS, for which the amyloid nucleation score amounted to 0.242 ± 0.77.
For EDKNLVWLLCQGEM the value was 4.43 ± 0.058; for NGRRFLSYSVMLRDLRYRSC, 0.138 ± 0.76.
Take RYGAMKLDTSKS: the amyloid nucleation score stood at 0.11 ± 0.25.
MYRVLSIKWDRHLTRVHIAW: the amyloid nucleation score result was “inactive”.
Substance TSLGNL yielded an amyloid nucleation score of -0.825 ± 1.1.
GVRKFLHPTTGPYMYTRCWA: the amyloid nucleation score was determined as 0.44 ± 0.45.
LSMELNGYYILVCDLDFVTE returned an amyloid nucleation score of 1.5 ± 0.16.
Regarding CSVWRDLVAICLRD, the amyloid nucleation score entry is “inactive”.
Consider LTDVYMVI, for which the amyloid nucleation score is -0.395 ± 0.76.
Then NACPVCSRW, with 0.589 ± 0.38.
In turn, LVITTMDDLKCDRAVVGPMW gave an amyloid nucleation score of -0.174 ± 0.76.
GLPPVC returned an amyloid nucleation score of 0.851 ± 0.22.
For IVFFVSWLIKCKPWFLVVNM the value was “inactive”.
Substance ECRMRLVFHRSIGYTTQCFV showed an amyloid nucleation score of 3.37 ± 0.064.
Then NILRATTFCVDHLYSSFFCT, with 6.74 ± 0.068; and PCSGSLPRTKTD, with -0.167 ± 0.32.
SWRIDNVGSRWSTMVCC had an amyloid nucleation score of 6.09 ± 0.063.
CSYCFCCVH: the amyloid nucleation score stood at 8.29 ± 0.065.
With DWFSTLHLIGSAS, the amyloid nucleation score was -0.041 ± 0.63.
AYMSITSSLYNCTRRPTGTC showed an amyloid nucleation score of -1.35 ± 0.38.
GFVVMMFNLANRYSMQGDVG came in with an amyloid nucleation score of 8.234 ± 0.052.
With LNRYYSLPRLSVPSSVRSCG, the amyloid nucleation score is -1.18 ± 0.44.
As for FLMYFVNR, the amyloid nucleation score was determined as 2.83 ± 0.055.
As to LSWAHVVICLIW, the amyloid nucleation score entry is “inactive”.
Then EPTMVRFDSLFVSDCYMSA, with 0.499 ± 0.4; and WSRMLFGECRSGKLRLPMPR, with 3.73 ± 0.099; and LYRSVGFGIVEFDH, with “inactive”.
As to QWGSMVSCRCYRPPTEGPGW, the amyloid nucleation score is -0.605 ± 0.76.
Turning to NSLGRYSFRFVRCEGVWKTR, the amyloid nucleation score is -0.88 ± 0.76.
As for GAFIMWYTGWVPHVDSGCCL, the amyloid nucleation score is -1.04 ± 1.1.
Then IRYDLQQGQFPPTRMECLVL, with 0.437 ± 0.27.
For the substance YCPPFLHNTWAYAKRTGRGS, the amyloid nucleation score was -0.137 ± 0.61.
Then IRSSSSGNQSQVFSPRDNPP, with -0.381 ± 0.31.
As for ILCLFTLSSSKCYGG, the amyloid nucleation score worked out at 5.689 ± 0.037.
On to GKYCYPL, for which the amyloid nucleation score was -0.81 ± 0.32.
As to CILEHRSEQWYCYLWPARRG, the amyloid nucleation score was determined as 4.24 ± 0.078.
Then TFCICPFNAEV, with 7.35 ± 0.029.
For KARLIAITHLPRYYWSFGVL the value was 0.388 ± 0.62.
YLTNNLVLWFDICDEERYWW: the amyloid nucleation score was 5.45 ± 0.059.
On to MMSSRILGVFDSSSTICVRH, for which the amyloid nucleation score is -0.218 ± 0.38.
Turning to HWERLIGNLM, the amyloid nucleation score was -0.791 ± 0.36.
Then SYHNVG, with -0.974 ± 0.61; and DFAFAFVVGTVLAISICVKH, with -0.459 ± 0.56.
For PFWVGNGKQGVFGKFDCYVI, the amyloid nucleation score was -1.19 ± 0.34.
In turn, YSWKFFCRWNEQD returned an amyloid nucleation score of 1.04 ± 0.59.
PIFYSPLAFMLRMYHNG displayed an amyloid nucleation score of -0.998 ± 0.38.
Substance LRLWHDYSFFLNKVSQVHSY displayed an amyloid nucleation score of -1.12 ± 1.1.
Substance SCRRADFGMAVVHSLLVCGE came in with an amyloid nucleation score of 0.709 ± 0.66.
Consider LRMSVVQLSVRESLLDNHDY, for which the amyloid nucleation score was determined as 1.78 ± 0.25.
The substance FISHIYLNESQQKSSALNTL came in with an amyloid nucleation score of -1.32 ± 0.53.
MRHSRHFVQYGWFDCGQSGS: the amyloid nucleation score was determined as 1.02 ± 0.29.
Consider YSHGEVCCWSCVMWVKHFMR, for which the amyloid nucleation score was 1.47 ± 0.33.
MLCVFRVLPMLNWY had an amyloid nucleation score of -0.257 ± 0.48.
For ILWWNKAMGCFNELVLGRRV the value was -0.016 ± 0.79.
For CCIRSLWLNLVLTNASGPSL the value was 4.39 ± 0.049; for SRSILLKAGWI, “inactive”.
For ACLITNRV the value was -0.288 ± 0.54; for GMMLPVFMIFIRRACINYSL, “inactive”; for VSKKFIIVVRNREFSP, 4.43 ± 0.086.
The substance VRQRNNWFTMVIVCVISVMA displayed an amyloid nucleation score of 3.52 ± 0.13.
The substance FDWQRLMG had an amyloid nucleation score of 0.196 ± 0.64.
In turn, SFCVLIRYNRFGAIS had an amyloid nucleation score of 1.24 ± 0.22.
In the case of MNVYYHVGWNGCYSGVWRAE, the amyloid nucleation score is 4.818 ± 0.043.
Then VKTKAVTRVMIP, with 0.589 ± 0.35.
In turn, TDCTLSGKRLRYLNGDCFKK yielded an amyloid nucleation score of -1.13 ± 0.55.
Substance SRRVLYMVVPPLVF gave an amyloid nucleation score of -1.36 ± 0.54.
In turn, AKNVKKT showed an amyloid nucleation score of -0.575 ± 0.32.
The substance SSWPSMST registered an amyloid nucleation score of -0.458 ± 0.28.
The substance RIRRVSERMSVFRTLHRTMW showed an amyloid nucleation score of 5.01 ± 0.079.
IFDRNSYFKEHFVMIGLEGR gave an amyloid nucleation score of 0.228 ± 1.
In the case of YEGFM, the amyloid nucleation score was -0.297 ± 0.56.
As for QFVNQRSYKGSLTFFMIRGR, the amyloid nucleation score result was “inactive”.
For SCNQCYFFQEVKRSVLVIKT the value was 3.59 ± 0.066; for DDSTFKSRFVLGIPAICLGS, -1.37 ± 0.4; for AMGVC, -0.061 ± 0.41.
For CIFYFMILFSGDIKCLNKPL, the amyloid nucleation score result is “inactive”.
As for KGRGCRFLMLYYRVYMFRGS, the amyloid nucleation score turned out to be 0.471 ± 0.5.
As to VSLIFQIRLRHRLTGAQMKR, the amyloid nucleation score is 0.762 ± 0.37.
For NYEGNGRVVITLLLGSNWYR, the amyloid nucleation score came out at 4.04 ± 0.086.
For SHTWKQMRYYLDNWSLY, the amyloid nucleation score was -0.288 ± 1.
CSSFKSLIRLGTLNRRNRNE showed an amyloid nucleation score of 3.68 ± 0.059.
For LSLVNGLRDVFTSGWALRCW the value was 4.89 ± 0.05; for SGYMAHVLVFLSEGISVPC, “inactive”; for HFMIVSLDGNHVMTTAAGVA, 0.233 ± 0.43.
For the substance ISLFDYGQGMFHRCFMAVKG, the amyloid nucleation score was -0.131 ± 0.6.
As for RHTYVHYAHKVYLESFLGCG, the amyloid nucleation score came out at 6.327 ± 0.04.
Substance RGQMRLQRRLPKLRTSGKLQ had an amyloid nucleation score of 1.49 ± 0.34.
Turning to ARMRKFTCRDWFRDPMGQPA, the amyloid nucleation score was determined as 0.854 ± 0.25.
Take ARCMGFLSGGIHYRYLTAQM: the amyloid nucleation score entry was “inactive”.
LVVKGDLFAIYVCPCLCRGS: the amyloid nucleation score amounted to 9.397 ± 0.051.
Then VFTCGVVPYPYKNTLKYKCF, with -0.319 ± 0.4; and MDRWGLFMGYCIADHMIMFD, with -0.416 ± 0.48; and RTPPISMGKHNFVYVSSVCG, with -1.1 ± 0.36.
As to TGSRNIWTRVVFLYCFRVHG, the amyloid nucleation score was -0.939 ± 0.54.
With SEGRATARQLLVKDTLFV, the amyloid nucleation score is 4.06 ± 0.088.
For the substance NTMELLFIGVWIAFWLN, the amyloid nucleation score result was “inactive”.
The substance NIFSWEAVEKARYAHSPLNN came in with an amyloid nucleation score of -1.44 ± 1.1.
KYVGWQYLSSCILGVFPLAG gave an amyloid nucleation score of 0.151 ± 0.32.
Take VLPYSRVSTS: the amyloid nucleation score came out at 0.007 ± 0.28.
For GHSLYPWSALTPLL, the amyloid nucleation score result was “inactive”.
Then GFEGMSMADRKKGEVRAIWG, with 0.755 ± 0.31.
Regarding LFGGRGKRVRLKVLLTQRF, the amyloid nucleation score was -0.37 ± 0.32.
For LFNAVGLATV, the amyloid nucleation score is 0.33 ± 0.74.
In the case of GNYHFCRERGRVACW, the amyloid nucleation score is -0.378 ± 1.
For GVTVKGAVIFYRY the value was 6.47 ± 0.074; for YGSESVGGSQRSGNLSWGTG, 0.257 ± 0.64.
The substance YKLRSQ came in with an amyloid nucleation score of -0.184 ± 0.27.
The substance AYYLFYTRGEFR displayed an amyloid nucleation score of 3.2 ± 0.09.
On to NTIQCY, for which the amyloid nucleation score entry was “inactive”.
In the case of CCVYAASLLPFQLVAALLTD, the amyloid nucleation score is 0.91 ± 0.34.
On to VRKLSRNLMICYKTVLSGDC, for which the amyloid nucleation score was -0.105 ± 0.65.
In turn, MTIGFNAIYHQFRVTRCLVT came in with an amyloid nucleation score of 0.545 ± 0.53.
The substance IGDSVGSDWTSTFMCDSVCR had an amyloid nucleation score of -0.15 ± 0.42.
As for NMIYYGVL, the amyloid nucleation score is -1.24 ± 0.45.
With ASREWASSVVLW, the amyloid nucleation score turned out to be 0.427 ± 0.29.
CINLTLYFMQ had an amyloid nucleation score of 9.091 ± 0.053.
With LWPVCALDEGL, the amyloid nucleation score came to 0.669 ± 0.62.
In the case of NSIGPTPGGN, the amyloid nucleation score worked out at 0.123 ± 1.
For QRSAKLRALPEGIKHKKWLM the value was -0.108 ± 1.1.
RIEVLTLCGGEAGSLVMGIV: the amyloid nucleation score was 1.16 ± 0.48.
Substance WCEGHKSW came in with an amyloid nucleation score of -0.817 ± 1.
As to PWACIIYRLQGSPLINSRFN, the amyloid nucleation score turned out to be 1.04 ± 0.12.
